Columns and labels:
[1] = Parallel one-pot glycoside synthesis (transglycosylation to MeOH); type: biochemical; details: 50° C., 1:9 MeOH:phosphate buffer pH 6.5
Method: Enzyme (WT, […] or E432C, 1 mg) was added to a mixed solution (1 mL) of para-nitrophenyl (pNP) β-D-manno-, galacto-, gluco- and xylo- pyranosides (0.03 mmol of each) in 1:9 MeOH:phosphate buffer (pH 6.5) and incubated at 50° C. for 45 min (WT), 4 h (WT), 8 h (W433C, E432C). After this time the solutions were extracted with EtOAc to remove para-nitrophenol and passed through short Sephadex and Celite:Graphite (1:1) columns to remove protein, pNP-glycoside and remaining para-nitrophenol. Solvent was removed and product mixtures were analysed by ^1H NMR and ESMS. Yields based on donor were calculated from integration of anomeric proton resonances in ^1H NMR (D2O, 500 MHz): α-Gal (δ 5.12, d, […]), α-Glc (δ 5.08, d, 3.8 Hz), α-Xyl (δ 5.04, d, J=3.4 Hz), α-Man (δ 5.03, d, J=1.8 Hz), β-Man (δ 4.75, s), β-Glc (δ 4.49, d, J=8.0 Hz), P-Gal (δ 4.45, d, 7.9 Hz), Me-β-Man (δ 4.44, s), β-Xyl (δ 4.42, d, J=7.8 Hz), Me-β-Glc (δ 4.23, d, J 8.1 Hz), Me-β-Xyl (δ 4.18, d, J=7.8 Hz), Me-β-Gal (δ 4.17, d, J=8.0 Hz).
Scheme 1: Parallel glycoside syntheses using SSβG-WT, -E432C and -W433C as catalysts. […] Such balanced libraries are not produced by SSβG-WT even under varying reaction times.

[2] = Hydrolysis of 4-methylumbelliferyl-β-D-glucuronide, initial rates; type: biochemical; details: 80° C., pH 6.5
Method: Parameters were determined by the method of initial rates. Activity was measured in time course assays of the hydrolysis of 4-methylumbelliferyl-β-D-glycosides (β-D-gluco, β-D-galacto, β-D-fuco, β-D-manno, β-D-xylo, β-D-glucurono) at 5-15 concentrations (0.001-1.5 mM) incubated at 80° C. in 50 mM sodium phosphate buffer, pH 6.5. Reactions were terminated at 2, 5, 10, 15 min by the addition of 100 μl of ice cold 1M NazCO3, pH 10 and analyzed (Labsystems Fluoroscan Ascent plate reader, […]). KM and kcat were derived by fitting the initial rates to hyperbolic Michaelis-Menten curves using GraFit 4 (Erithacus Software Ltd, Staines, UK).
Determination of the Michaelis-Menten parameters for the WT and mutant enzymes was performed at pH 6.5 at 80° C. for a broad range of representative, fluorophore-containing 4-methylumbelliferyl glycoside substrates, which allowed activities to be determined with a high degree of sensitivity (Table). Under these optimized assay conditions, the glucoside (Glc), galactoside (Gal) and fucoside (Fuc) substrates were hydrolysed well by SSβG-WT, but the xyloside (Xyl) substrate was hydrolysed relatively poorly (approx. 3% of turnover as determined by kcat compared with β-D-glucoside). […] In all cases the absolute D-stereospecificity and β-stereoselectivity of SSβG was maintained and no activity was detected towards L- or α-glycoside substrates.

B1: WT: Wild type β-glycosidase from Sulfolobus solfataricus (SEQ ID NO: 2), recombinant with N-terminal His6-tag (protein, listed as Sulfolobus solfataricus)
chain: MYSFPNSFRFGWSQAGFQSEMGTPGSEDPNTDWYKWVHDPENMAAGLVSGDLPENGPGYWGNYKTFHDNAQKMGLKIARLNVEWSRIFPNPLPRPQNFDESKQDVTEVEINENELKRLDEYANKDALNHYREIFKDLKSRGLYFILNMYHWPLPLWLHDPIRVRRGDFTGPSGWLSTRTVYEFARFSAYIAWKFDDLVDEYSTMNEPNVVGGLGYVGVKSGFPPGYLSFELSRRHMYNIIQAHARAYDGIKSVSKKPVGIIYANSSFQPLTDKDMEAVEMAENDNRWWFFDAIIRGEITRGNEKIVRDDLKGRLDWIGVNYYTRTVVKRTEKGYVSLGGYGHGCERNSVSLAGLPTSDFGWEFFPEGLYDVLTKYWNRYHLYMYVTENGIADDADYQRPYYLVSHVYQVHRAINSGADVRGYLHWSLADNYEWASGFSMRFGLLKVDYNTKRLYWRPSALVYREIATNGAITDEIEHLNSVPPVKPLRH
modifications: N-terminal His6 tag
In the case of B1, the “Yield of Products, product 1 (β-glycoside of Glc)” value ([1]; 45 min) is reported as 40%, the “Yield of Products, product 2 (β-glycoside of Gal)” value ([1]; 45 min) is reported as 33% and the “Yield of Products, product 3 (β-glycoside of Man)” value ([1]; 45 min) is reported as 2%. The “Yield of Products, product 4 (β-glycoside of Xyl)” value ([1]; 45 min) was 3%, the “Yield of Products, product 5” value ([1]; 45 min) was 14% and the “Yield of Products, product 6” value ([1]; 45 min) was 8%. The “Yield of Products, product 3 (β-glycoside of Man)” value ([1]; 4 h) was 8%, the “Yield of Products, product 4 (β-glycoside of Xyl)” value ([1]; 4 h) was 20% and the “Yield of Products, product 5” value ([1]; 4 h) was 33%. The “Yield of Products, product 6” value ([1]; 4 h) was 30%, the “Yield of Products, product 7” value ([1]; 4 h) was 4% and the “Yield of Products, product 8” value ([1]; 4 h) was 5%. The kcat ([2]; 4-MUGlcA) was 0.81 ± 0.18 s⁻¹, the Km ([2]; 4-MUGlcA, read-out: Km) was 1300 ± 400 µM and the “β-D-glucuronide activity, turnover relative to β-D-glucoside” value [2] was ~0.5%.
